Measured values as given in US12570711B2, “Platforms for co-stimulation, novel car designs and other enhancements for adoptive cellular therapy” (Angeles Therapeutics, Inc., priority 2017, dated 2026).

B1: IKK2-S177E-S181E: constitutive active mutant of IKKβ/IKK2 (protein)
chain: MSWSPSLTTQTCGAWEMKERLGTGGFGNVIRWHNQETGEQIAIKQCRQELSPRNRERWCLEIQIMRRLTHPNVVAARDVPEGMQNLAPNDLPLLAMEYCQGGDLRKYLNQFENCCGLREGAILTLLSDIASALRYLHENRIIHRDLKPENIVLQQGEQRLIHKIIDLGYAKELDQGELCTEFVGTLQYLAPELLEQQKYTVTVDYWSFGTLAFECITGFRPFLPNWQPVQWHSKVRQKSEVDIVVSEDLNGTVKFSSSLPYPNNLNSVLAERLEKWLQLMLMWHPRQRGTDPTYGPNGCFKALDDILNLKLVHILNMVTGTIHTYPVTEDESLQSLKARIQQDTGIPEEDQELLQEAGLALIPDKPATQCISDGKLNEGHTLDMDLVFLFDNSKITYETQISPRPQPESVSCILQEPKRNLAFFQLRKVWGQVWHSIQTLKEDCNRLQQGQRAAMMNLLRNNSCLSKMKNSMASMSQQLKAKLDFFKTSIQIDLEKYSEQTEFGITSDKLLLAWREMEQAVELCGRENEVKLLVERMMALQTDIVDLQRSPMGRKQGGTLDDLEEQARELYRRLREKPRDQRTEGDSQEMVRLLLQAIQSFEKKVRVIYTQLSKTVVCKQKALELLPKVEEVVSLMNEDEKTVVRLQEKRQKELWNLLKIACSKVRGPVSGSPDSMNASRLSQPGQLMSQPSTASNSLPEPAKKSEELVAEAHNLCTLLENAIQDTVREQDQSFTALDWSWLQTEEEEHSCLEQAS
B2: IKK1-S176E-S180E: constitutive active mutant of IKKa/IKK1 (protein)
chain: MERPPGLRPGAGGPWEMRERLGTGGFGNVCLYQHRELDLKIAIKSCRLELSTKNRERWCHEIQIMKKLNHANVVKACDVPEELNILIHDVPLLAMEYCSGGDLRKLLNKPENCCGLKESQILSLLSDIGSGIRYLHENKIIHRDLKPENIVLQDVGGKIIHKIIDLGYAKDVDQGELCTEFVGTLQYLAPELFENKPYTATVDYWSFGTMVFECIAGYRPFLHHLQPFTWHEKIKKKDPKCIFACEEMSGEVRFSSHLPQPNSLCSLIVEPMENWLQLMLNWDPQQRGGPVDLTLKQPRCFVLMDHILNLKIVHILNMTSAKIISFLLPPDESLHSLQSRIERETGINTGSQELLSETGISLDPRKPASQCVLDGVRGCDSYMVYLFDKSKTVYEGPFASRSLSDCVNYIVQDSKIQLPIIQLRKVWAEAVHYVSGLKEDYSRLFQGQRAAMLSLLRYNANLTKMKNTLISASQQLKAKLEFFHKSIQLDLERYSEQMTYGISSEKMLKAWKEMEEKAIHYAEVGVIGYLEDQIMSLHAEIMGLQKSPYGRRQGDLMESLEQRAIDLYKQLKHRPSDHSYSDSTEMVKIIVHTVQSQDRVLKELFGHLSKLLGCKQKIIDLLPKVEVALSNIKEADNTVMFMQGKRQKEIWHLLKIACTQSSARSLVGSSLEGAVTPQTSAWLPPTSAEHDHSLSCVVTPQDGETSAQMIEENLNCLGHLSTIIHEANEEQGNSMMNLDWSWLTE
B3: hNEMO-K277A-DeltaV249-K255: mutant lacking aminoacid residues V249-K255 of human NEMO and carrying the K277A mutation (protein)
chain: MNRHLWKSQLCEMVQPSGGPAADQDVLGEESPLGKPAMLHLPSEQGAPETLQRCLEENQELRDAIRQSNQILRERCEELLHFQASQREEKEFLMCKFQEARKLVERLGLEKLDLKRQKEQALREVEHLKRCQQQMAEDKASVKAQVTSLLGELQESQSRLEAATKECQALEGRARAASEQARQLESEREALQQQHSVQVDQLRMQGQSVEAALRMERQAASEEKRKLAQLQVAYHQLFQEYDNHIKSSRGMQLEDLKQQLQQAEEALVAAQEVIDKLKEEAEQHKIVMETVPVLKAQADIYKADFQAERQAREKLAEKKELLQEQLEQLQREYSKLKASCQESARIEDMRKRHVEVSQAPLPPAPAYLSSPLALPSQRRSPPEEPPDFCCPKCQYQAPDMDTLQIHVMECIE
B4: mNEMO-K270A: mouse NEMO-K270A mutant, known to activate NF-κB constitutively (protein)
chain: MNKHPWKNQLSETVQPSGGPAEDQDMLGEESSLGKPAMLHLPSEQGTPETLQRCLEENQELRDAIRQSNQMLRERCEELLHFQVSQREEKEFLMCKFQEARKLVERLSLEKLDLRSQREQALKELEQLKKCQQQMAEDKASVKAQVTSLLGELQESQSRLEAATKDRQALEGRIRAVSEQVRQLESEREVLQQQHSVQVDQLRMQNQSVEAALRMERQAASEEKRKLAQLQAAYHQLFQDYDSHIKSSKGMQLEDLRQQLQQAEEALVAAQELIDKLKEEAEQHKIVMETVPVLKAQADIYKADFQAERHAREKLVEKKEYLQEQLEQLQREFNKLKVGCHESARIEDMRKRHVETPQPPLLPAPAHHSFHLALSNQRRSPPEEPPDFCCPKCQYQAPDMDTLQIHVMECIE

Columns and labels:
[1] = system: bone marrow derived dendritic cells (DC); assay: Bone marrow derived dendritic cells expressing selective NF-κB activators: cytokine production, antigen presentation, immune response; format: cell-based; conditions: compared to control DC
Description: The disclosure further provides that expression of a selective NF-κB activator can be used to improve the cytokine secretion, antigen presentation and immune response generated by antigen presenting cells, including dendritic cells. The disclosure further provides a method of improving the efficacy of vaccine, including cancer vaccines, by expression of a selective NF-κB activator in the antigen presenting cells ex vivo or in vivo. In one embodiment, the use of selective NF-κB activators increase cytokine production (e.g., TNFα) by antigen presenting cells (e.g., dendritic cells) by more than at least 15%.

NF-κB = assay: NF-κB-Luciferase reporter assay in transfected 293FT cells (normalized to RSV-LacZ); format: cell-based; conditions: NF-κB-Luciferase plus RSV-LacZ reporter
Protocol: The different constructs were transfected in 293FT cells along with an NF-κB-Luciferase reporeter construct and a RSV-LacZ (normalization control) reporter construct and tested for their ability to activate NF-κB using assay described previously.
The constructs were transfected into 293FT cells along with an NF-κB-Luciferase reporeter construct and a RSV-LacZ reporter construct. Approximately 8 hours, post-transfection, cells were left untreated or treated with AP20187 (100 nM). After approximately 72 hours, cell lysates were prepared and analyzed for NF-κB luciferase and LacZ activities as described previously. NF-κB-Luc activity was normalized for LacZ activity to control for difference in transfection efficiency.

BM-derived DCs = assay: Maturation markers on transduced bone marrow-derived dendritic cells by flow cytometry; format: cell-based, mouse; conditions: for maturation markers CD86, CD40, ICAM-1 and CD80 on DCs: compared to transduced DCs in the control vector group; for retention of CD86 on transduced DCs: culture
Protocol: Transduction of DCs and flow cytometry. Murine bone marrow-derived Dendritic cells (DCs) are prepared as previously described. Immature DCs are transduced on day 4 at an MOT of 20 with lentiviral vectors as described (Rowe H M et al, Molecular Therapy, 13, 2, 2006) and fed every 4 days with fresh medium containing granulocyte-macrophage colony-stimulating factor (50 ng/ml; from Peprotech). On day 5 posttransduction, DCs are harvested, washed, and blocked for Fc receptors before surface staining for maturation markers with the following biotin-conjugated Abs: anti-CD11c, anti-CD86, and anti-I-Ab (MHC class II) (all from BD Pharmingen); anti-CD40 (from Serotec); and anti-CD80, anti-ICAM-1, and anti-Kb (MHC class I) (all from eBioscience). A hamster isotype control Ab (biotin conjugated) is purchased from BD Pharmingen. Abs are then labeled with streptavidin RPE Cy-5 2o reagent (DakoCytomation) before flow cytometry. Lipopolysaccharide (LPS) (50 ng/ml) (Sigma) is added to untransduced DCs and left overnight as a positive control for maturation. Zymosan A (10 μg/ml) treatment (for 30 min at 37° C.) is used as a control for ERK activation.

lymph node DCs = assay: Lymph node dendritic cells after subcutaneous lentivector injection; format: in vivo, mouse; conditions: s.c. lentivector injection; compared to control vector-injected animals
Protocol: DC purification from lymph nodes. C57/BL6 mice (Harlan) are injected subcutaneously (s.c.) at the base of the tail with 1×10^8 infectious units (i.u.) lentivector. Six days later, lymph nodes (para-aortical and inguinal) are harvested (cells from mice in each group were pooled), incubated with collagenase CLS-4 (Worthington), and mashed to obtain single-cell suspensions. Fc receptors are blocked before CD11c-positive cells are selected using MACS beads (Miltenyi Biotec).
Following s.c. lentivector injection, transduced DCs are detected in the draining lymph nodes.

EG7.OVA tumor cells = assay: EG7.OVA tumor therapy in C57BL/6 mice; format: in vivo, mouse; conditions: transduced DC injection or direct lentivector injection after lethal dose of EG7.OVA
Protocol: Tumor therapy. EG7.OVA tumor cells are grown in RPMI plus 0.4 mg/ml G418 (Invitrogen). C57BL/6 mice are challenged with 2×10^6 tumor cells injected s.c. into the flank and then vaccinated.
Mice are inoculated with a lethal dose of EG7.OVA tumor cells before vaccinating them either with transduced DCs or with the human NEMO-K277A-, human NEMO-K277A-deltaV249-K255-, mouse NEMO-K270A- and IKK2-S177E-S181E-vectors directly. All mice are shown to develop tumors.

Molecule | cytokine production, antigen presentation and immune response of DC [1] | activation of NF-κB (NF-κB) | maturation markers CD86, CD40, ICAM-1 and CD80 on DCs (BM-derived DCs) | retention of CD86 on transduced DCs (BM-derived DCs) | CD86 on lymph node DCs (lymph node DCs) | number of tumor-free mice (EG7.OVA tumor cells)
K13-opt: vFLIP K13 encoded by human codon optimized nucleic acid sequence | superior cytokine production, antigen presentation, and immune response |  |  |  |  | 
hNEMO-K277A: human NEMO mutant K277A, constitutively active selective NF-κB activator used as accessory module | superior cytokine production, antigen presentation, and immune response | strong activation | upregulated | retain their upregulated CD86 for several weeks in culture | upregulation of CD86 | higher than that in the control group
hNEMO-K277G: hNEMO mutant in which Lys (K) at residue 277 is replaced by G |  | weak activation |  |  |  | 
hNEMO-K277I: hNEMO mutant in which Lys (K) at residue 277 is replaced by I |  | weak activation |  |  |  | 
hNEMO-K277L: hNEMO mutant K277L |  | NF-κB activation |  |  |  | 
B1 | superior cytokine production, antigen presentation, and immune response |  | upregulated | retain their upregulated CD86 for several weeks in culture | upregulation of CD86 | higher than that in the control group
B2 | superior cytokine production, antigen presentation, and immune response |  |  |  |  | 
B3 | superior cytokine production, antigen presentation, and immune response | NF-κB activation | upregulated | retain their upregulated CD86 for several weeks in culture | upregulation of CD86 | higher than that in the control group
B4 | superior cytokine production, antigen presentation, and immune response | strong activation | upregulated | retain their upregulated CD86 for several weeks in culture | upregulation of CD86 | higher than that in the control group
